From patent publication US20050137130A1, “Medical treatment” (priority 2001, published 2005)

Tested on: activated human CD4+ T cells
Assay: Cytokine production (ELISA) by human CD4+ T cells stimulated with anti-CD3/CD28 beads and Delta1 beads, with added soluble protein
Assay type: cell-based
Conditions: increasing amounts of soluble protein in culture medium, 3 days
Method: M450 Streptavidin Dynabead™ magnetic beads (Dynal, USA) were coated with an anti-human-IgG4 biotinylated monoclonal antibody (BD Bioscience, 555879) by rotating them in the presence of the antibody for 30 minutes at room temperature. Beads were washed three times with PBS (1 ml). They were further incubated with hDelta1-hIgG4 (see Example 1 above) for 2 hours at room temperature and then washed three times with PBS (1 ml).
Human peripheral blood mononuclear cells (PBMC) were purified from blood using Ficoll-Paque separation medium (Pharmacia). Briefly, 28 ml of blood were overlaid on 21 ml of Ficoll-Paque separation medium and centrifuged at 18-20° C. for 40 minutes at 400 g. PBMC were recovered from the interface and washed 3 times before use for CD4+ T cell purification.
The CD4+ T cells were incubated in triplicates in a 96-well-plate (flat bottom) at 10^5 CD4/well/200 μl in RPMI medium containing 10% FCS, glutamine, penicillin, streptomycin and β2-mercaptoethanol.
Cytokine production was induced by stimulating the cells with anti-CD3/CD28 T cell expander beads from Dynal at a 1:1 ratio (bead/cell) in the presence of beads coated with hDelta1-IgG4Fc fusion protein (Example 1 above) at a 5:1 ratio (beads/cell). In some wells, increasing amounts of soluble hdelta1-IgG4Fc fusion protein were also added.
(§1) The supernatants were removed after 3 days of incubation at 37° C./5% CO2/humidified atmosphere and cytokine production was evaluated by ELISA using Pharmingen kits OptEIA Set human IL10 (catalog No. 555157), OptEIA Set human IL-5 (catalog No. 555202) for IL-10 and IL-5 respectively according to the manufacturer's instructions.
Human peripheral blood mononuclear cells (PBMC) were purified from blood using Ficoll-Paque separation medium (Pharmacia). […]
as §1, with “(Catalog” for “(catalog”, “instructions. […]” for “instructions.”

B1: rat Notch1-hIgG1Fc: R&D Systems Catalog No 1057-TK; 12 amino terminal EGF domains of rat Notch-1 fused to the Fc region of human IgG (protein)
chain: ARGLRCSQPSGTCLNGGRCEVANGTEACVCSGAFVGQRCQDPSPCLSTPCKNAGTCYVVDHGGIVDYACSCPLGFSGPLCLTPLANACLANPCRNGGTCDLLTLTEYKCRCPPGWSGKSCQQADPCASNPCANGGQCLPFESSYICGCPPGFHGPTCRQDVNECSQNPGLCRHGGTCHNEIGSYRCACRATHTGPHCELPYVPCSPSPCQNGGTCRPTGDTTHECACLPGFAGQNCEENVDDCPGNNCKNGGACVDGVNTYNCRCPPEWTGQYCTEDVDECQLMPNACQNGGTCHNSHGGYNCVCVNGWTGEDCSENIDDCASAACFQGATCHDRVASFYCECPHGRTGLLCHLNDACISNPCNEGSNCDTNPVNGKAICTCPSGYTGPACSQDVDECALGANPCEHAGKCLNTLGSFECQCLQGYTGPRCEIDVNECISNPCQNDATCLDQIGEFQCICMPGYEGVYCEIEGRMD
modifications: left off: a dimerising Fc or GST
notes: R&D Systems Catalog No 1057-TK; 12 amino terminal EGF domains of rat Notch-1 fused to the Fc region of human IgG
B1 was tested, and the “effect of added soluble protein on the IL-10 enhancement by bead-immobilised Delta1” value was “inhibited”.
